This note sets out measurements from US20200237923A1.

The target of this experiment is TNFR1 on L929 cells (UniProt P25118). Kind of experiment: cell-based or functional assay.
Chain of UniProt P25118 (P25118 30-454 limits assumed): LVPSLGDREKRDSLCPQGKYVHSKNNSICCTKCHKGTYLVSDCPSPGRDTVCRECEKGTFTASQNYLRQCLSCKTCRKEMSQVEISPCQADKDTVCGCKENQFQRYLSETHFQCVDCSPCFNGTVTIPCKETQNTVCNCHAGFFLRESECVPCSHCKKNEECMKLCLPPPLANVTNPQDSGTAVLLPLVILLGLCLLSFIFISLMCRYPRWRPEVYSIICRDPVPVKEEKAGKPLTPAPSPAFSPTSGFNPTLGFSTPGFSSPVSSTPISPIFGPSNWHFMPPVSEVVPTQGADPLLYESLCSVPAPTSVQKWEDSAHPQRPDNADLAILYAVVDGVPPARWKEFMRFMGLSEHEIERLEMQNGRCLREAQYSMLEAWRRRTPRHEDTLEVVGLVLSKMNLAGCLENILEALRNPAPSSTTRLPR
The substance “PRINT PEG5K scTNF-α (N-terminally mono-PEGylated with PEG-5000) (ligand)” had an EC50 of cytotoxic activity against L929 cells of 0.00058 ng/mL.
“randomly PEGylated scTNF-α (direct conjugation with PEG NHS ester) (ligand)”: the EC50 of cytotoxic activity against L929 cells stood at 0.0046 ng/mL and the loss of activity against unmodified scTNF-α (L929 cytotoxicity) came out at 10 fold.
As for “unmodified single-chain TNF-α (scTNF-α), His tag cleaved (ligand)”, the EC50 of cytotoxic activity against L929 cells stood at 0.00035 ng/mL.
Substance “PRINT PEG20K scTNF-α (N-terminally PEGylated with PEG-20000) (ligand)” came in with an EC50 of cytotoxic activity against L929 cells of 0.00062 ng/mL.
Same read-out and setting: in the case of “citraconylated scTNF-α (lysine side chains globally blocked with citraconic anhydride) (ligand)” it was 0.0076 ng/mL.
